Columns and labels:
Test in all cases: Y2H β-galactosidase liquid culture assay (ONPG)
[1] = biological target: PS1-COOH terminus Y2H bait (human)
[2] = biological target: PS1-Loop Y2H bait (human)
[3] = biological target: PS2-Loop Y2H bait (human) (UniProt P49810)
Chain of PS2-Loop Y2H bait (human) (P49810 271-361): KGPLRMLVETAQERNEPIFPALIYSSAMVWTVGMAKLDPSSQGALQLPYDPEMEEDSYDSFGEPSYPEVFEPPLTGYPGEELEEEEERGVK

Chain of PS1-Loop Y2H bait (human) (P79802 273-380): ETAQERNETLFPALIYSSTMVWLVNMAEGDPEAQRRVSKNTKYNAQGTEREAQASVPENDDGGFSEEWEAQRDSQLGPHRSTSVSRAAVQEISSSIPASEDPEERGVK

“near full-length ubiquilin-prey clone (FIG. 2 III, construct H without GST), M37-S595 (from UniProt Q9UMX0 37-587)” was tested, and the fold β-galactosidase activity compared with negative-control baits [1] was over 12 fold, the interaction strength relative to the PS2-COOH-terminal bait [2] was 2 fold and the interaction strength relative to the PS2-COOH-terminal bait [3] was 2 fold.

— patent US20030175278A1
